Results reported in patent publication US20250179204A1.

What was measured:
[1] = target: recombinant mouse GITR (plate-bound) (mouse) (UniProt O35714); test: ELISA, plate-bound recombinant mouse GITR, absorbance 450 nm against log(conc. ug/ml)
[2] = target: human FcγRIIIA soluble ectodomain (ELISA) (human) (UniProt P08637); test: ELISA, plate-bound human FcgRIIIA (receptor named in the legend paragraph 150, not on the sheet), absorbance 450 nm against log(conc. ug/ml)
[3] = target: recombinant mouse GITR (plate-bound) (mouse) (UniProt O35714); test: ELISA, plate-bound mGITR, antibody at ˜10^3 µg/ml as printed
[4] = target: recombinant mouse GITR (plate-bound) (mouse) (UniProt O35714); test: ELISA, plate-bound mGITR, plateau from ˜10-1.5 µg/ml as printed
[5] = target: recombinant mouse GITR (plate-bound) (mouse) (UniProt O35714); test: ELISA, plate-bound mouse GITR, delta OD against Log Ab con (ug/ml)
huFcγRIIA R131 (human) = huFcγRIIA R131 (human) (UniProt P12318); test: SPR, Biacore T200
Chain of huFcγRIIA R131 (human) (P12318 36-218 H167R limits assumed): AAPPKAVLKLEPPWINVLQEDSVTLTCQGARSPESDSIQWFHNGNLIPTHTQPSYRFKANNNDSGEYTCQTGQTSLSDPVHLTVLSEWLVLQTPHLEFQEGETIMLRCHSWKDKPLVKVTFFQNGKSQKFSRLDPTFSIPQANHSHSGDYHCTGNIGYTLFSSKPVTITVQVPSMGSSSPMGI

human FcγRIIB (human) [6] = target: human FcγRIIB (human) (UniProt P31994); test: SPR, Biacore T200
Chain of human FcγRIIB (human) (P31994 43-217): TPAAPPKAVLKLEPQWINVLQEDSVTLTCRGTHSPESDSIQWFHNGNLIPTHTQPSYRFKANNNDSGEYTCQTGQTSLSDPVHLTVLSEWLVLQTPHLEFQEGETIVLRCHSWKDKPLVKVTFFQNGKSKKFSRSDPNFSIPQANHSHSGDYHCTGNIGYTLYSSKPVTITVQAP

huFcγRIIIA F158 (human) = huFcγRIIIA F158 (human) (UniProt P08637); test: SPR, Biacore T200
Chain of huFcγRIIIA F158 (human) (P08637 17-208 limits assumed): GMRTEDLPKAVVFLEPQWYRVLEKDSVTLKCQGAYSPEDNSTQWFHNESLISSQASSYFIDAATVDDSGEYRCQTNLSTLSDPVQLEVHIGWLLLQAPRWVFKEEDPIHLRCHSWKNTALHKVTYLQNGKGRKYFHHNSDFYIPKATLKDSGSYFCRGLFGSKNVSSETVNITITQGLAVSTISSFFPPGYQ

[7] = target: human FcγRIIIA soluble ectodomain (ELISA) (human) (UniProt P08637); test: ELISA, plate-bound human FcgRIIIA soluble ectodomain, absorbance 450 nm against log(conc. ug/ml)
human FcγRIIB (human) [8] = target: human FcγRIIB (human) (UniProt P31994); test: ELISA, plate-bound human FcgRIIB soluble ectodomain, absorbance 450 nm against log(conc. ug/ml)

Chain of recombinant mouse GITR (plate-bound) (mouse) (O35714 20-153 limits assumed): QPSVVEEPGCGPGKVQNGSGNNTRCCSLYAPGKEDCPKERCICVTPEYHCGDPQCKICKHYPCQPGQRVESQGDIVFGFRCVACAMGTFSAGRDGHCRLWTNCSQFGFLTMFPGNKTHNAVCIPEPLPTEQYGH
Chain of human FcγRIIIA soluble ectodomain (ELISA) (human) (P08637 17-208): as the sequence (P08637 17-208 limits assumed) above

Substance | EC50 (read off the curve) [1] [µg/mL] | Kd (huFcγRIIA R131 (human)) [nM] | Kd (human FcγRIIB (human) [6]) [nM] | Kd (huFcγRIIIA F158 (human)) [nM] | also measured
chimeric anti-mouse GITR antibody (DTA-1 Fab) human IgG1-GAALIE | 0.02 | – | – | – | –
chimeric anti-mouse GITR antibody (DTA-1 Fab) afucosylated human IgG1-G236A | 0.01 | – | – | – | EC50 (read off the curve) [2]: 0.8 µg/mL
monospecific mIgG1-N297A anti-mouse GITR antibody (DTA-1 NA) | – | – | – | – | OD450 [3]: 0.6 OD450; OD450 at plateau [4]: 0.9 OD450; EC50 (read off the curve) [5]: 0.004 µg/mL
chimeric anti-mouse GITR antibody (DTA-1 Fab) human IgG1-N297A | 0.02 | – | – | – | –
chimeric anti-mouse GITR antibody (DTA-1 Fab) human IgG1-G236A | 0.02 | 120 | 4380 | – | –
chimeric anti-mouse GITR antibody (DTA-1 Fab) afucosylated human IgG1 | 0.02 | 1160 | – | 580 | –
chimeric anti-mouse GITR antibody (DTA-1 Fab) human IgG1-GASDALIE | 0.01 | 50 | 230 | 2230 | Fold = KD(IgG1)/KD(Fc region variant) (huFcγRIIA R131 (human)): 24.5 fold; Fold = KD(IgG1)/KD(Fc region variant) (human FcγRIIB (human) [6]): 14 fold; EC50 (read off the curve) [7]: 0.2 µg/mL
chimeric anti-mouse GITR antibody (DTA-1 Fab) with human IgG1 | 0.03 | 1160 | 3010 | 6700 | Fold = KD(IgG1)/KD(Fc region variant) (huFcγRIIA R131 (human)): 1 fold; Fold = KD(IgG1)/KD(Fc region variant) (huFcγRIIIA F158 (human)): 1 fold
chimeric anti-mouse GITR antibody (DTA-1 Fab) human IgG1-V11 | 0.02 | 3840 | – | – | EC50 (read off the curve) (human FcγRIIB (human) [8]): 0.4 µg/mL
